# Data taken from patent US5128450A, “Nonglycosylated human interleukin-3 analog proteins” (priority 1989, dated 1992).
# How the values were obtained:
# human bone marrow cells = assay: Human bone marrow proliferation assay; type: cell-based
# Procedure: Freshly isolated human bone marrow cells are preincubated for 2 hours at 37° C., 5% CO2, in tissue culture flasks containing 2×10^6 cells per mi prewarmed, pregassed serum-free RPMI1640 medium (Gibco, Chagrin Falls, OH, USA) containing 50 units/ml penicillin, 50 μg/ml streptomycin, and 300 μg/ml fresh L-glutamine (hereinafter "assay medium"). After preincubation, nonadherent cells are removed by pipetting the media gently over the surface of the flask. Nonadherent cells are collected by centrifugation at 1000 rpm for 10 minutes at 4° C., resuspended in a small volume of assay medium containing 10% fetal bovine serum (FBS), and counted using Trypan blue for viability and Turks stain for recovery of white cells. Cells are kept at about 4° C. in assay medium containing 10% FBS until added to assay plates.
# 50 μl assay medium are added to each well of a 96 well flat bottom tissue culture plate. 50 μl of sample diluted in assay medium are added to the first well of each row, and serial dilutions are made across each row in the usual manner. […] After incubation, cells are harvested onto glass fiber filters, washed, and tested for incorporated radioactivity using a scintillation counter. Units of huIL-3 activity are calculated by reference to the quantity of huIL-3 which induces 50% of maximal thymidine incorporation. […]
# rhesus monkeys = settings: cited from earlier work
Molecule,biological activity compared with production lots of Example 2 (human bone marrow cells),intracellular histamine (IH) in WBC (rhesus monkeys; after IL-3 treatment until day 8-10),"white blood cell (WBC) increase (rhesus monkeys; by day 14, 11, 33, 100 μg/kg/day s.c. thrice daily)","plasma histamine (rhesus monkeys; rhesus monkey, in vivo)","skin side effects (skin biopsy) (rhesus monkeys; rhesus monkey, in vivo)"
"Met^3 rhuIL-3 (Pro^8 Asp^15 Asp^70): truncated, non-glycosylated IL-3 analog having an N-terminus at Met^3, expressed from pIXY290 (protein, UniProt P08700 20-152, looked up, variant del1-2 N15D N70D) Interleukin-3: MTQTTPLKTSWVDCSNMIDEIITHLKQPPLPLLDFNNLNGEDQDILMENNLRRPNLEAFNRAVKSLQDASAIESILKNLLPCLPLATAAPTRHPIHIKDGDWNEFRRKLTFYLKTLENAQAQQTTLSLAIF",comparable in biological activity to the rhuIL-3 production lots,,,,
"huIL-3 (Ser^8): composition of huIL-3 (Ser^8) produced in E. coli, reported by Valent et al. (protein, UniProt P08700 20-152, looked up, variant P8S) Interleukin-3: APMTQTTSLKTSWVNCSNMIDEIITHLKQPPLPLLDFNNLNGEDQDILMENNLRRPNLEAFNRAVKSLQNASAIESILKNLLPCLPLATAAPTRHPIHIKDGDWNEFRRKLTFYLKTLENAQAQQTTLSLAIF",,rise continuously,2-3 fold,rise in plasma histamine values,urticaria-like exanthem revealing infiltration of mast cells and lymphocytes into the dermis
